Source: paper PMC6131172, “The first crystal structure of a DNA-free nuclear receptor DNA binding domain sheds light on DNA-driven allostery in the glucocorticoid receptor” (Scientific Reports, 2018)

Target: the molecule itself
Assay: crystal structure; hanging drop vapor diffusion at 18 °C; 25% PEG3350, 50 mM Tris pH8.5, 200 mM di-sodium tartrate; no reducing agents present; space group P1, eight molecules in the asymmetric unit

B1: glucocorticoid receptor (GR) DNA binding domain (DBD), residues 418–517 (domain or fragment, UniProt P04150 418-517, looked up)
chain: PKLCLVCSDEASGCHYGVLTCGSCKVFFKRAVEGQHNYLCAGRNDCIIDKIRRKNCPACRYRKCLQAGMNLEARKTKKKIKGIQQATTGVSQETSENPGN
notes: In the crystal two molecules are linked by a disulfide bridge via Cys431 (no reducing agents during crystallization); Each molecule holds two Zn2+; Mixed with a 35 nt RNA hairpin before crystallization, but no nucleic acid was found in the crystal; also called GR DBD; free GR DBD; not shown: His6-Sumo, N-terminal, cleaved
- binding result: binds
